# Paper PMC6170708
# How the values were obtained:
# [1] = biological target: recombinant HBcAg assembly domain dimer (construct Cp1–149.C48A.C107A) (Hepatitis B virus (strain not stated)) (UniProt P03147); experiment: AUC
# [2] = biological target: recombinant HBeAg dimer (construct Cp(−10) 149 C48A.C107A) (Hepatitis B virus (strain not stated)) (UniProt P03147); experiment: AUC
Substance,stoichiometry N [1],percent of dimers converted to capsids (the pair that is blocked) [2] [%]
recombinant HBcAg assembly domain dimer (construct Cp1–149.C48A.C107A) (from UniProt P03147 1-149) (domain or fragment),2,
recombinant HBeAg dimer (construct Cp(−10) 149 C48A.C107A) (from UniProt P03147 1-149) (domain or fragment),,40
